According to IntAct's records for PubMed 16236155:

B1: Protein GRIP (Arabidopsis thaliana (Mouse-ear cress)), Q8S2T0 (parent)
chain: MSEDKESDVVGEEEESHVIKEDKELNDASNETLTENGDQLLQMIAELRLENDFLRSQFEGLKDEVAQGRSLQKAEQVEADSAQLKQLQEQVASLSREIDVEKQTRVAAEQALEHLREAYSEADAKSQEYSSKFSQVEQKLDQEIKERDEKYADLDAKFTRLHKRAKQRIQEIQKEKDDLDARFREVNETAERASSQHSSMQQELERTRQQANEALKAMDAERQQLRSANNKLRDTIEELRGSLQPKENKIETLQQSLLDKDQILEDLKKQLQAVEERKQIAVTELSAKHQKNLEGLEAQVVDALSERDKAAETISSLQVLLAEKESKIAEMEAAATGEAARLRAAAETLKGELAHLKSENEKEKETWEASCDALKSKLEIAESNYLQAEIEVAKMRSQLGSEMSMQTQILSTKDAELKGAREEINRLQSEFSSYKIRAHALLQKKDMELAAAKDSEQIKSLEEALKEAEKEVYLVSAERDRAQQDLQSALASLEKELEERAGALKDASEQIKSLEVKLDSTVARNQAEKQAWEEDLRVLEETWRRRCEALTAQNEASPAEGIEKELENAKLRNKRMKEEHESVRELADRLIEEKDREISRLVDEMTNLRKSMESKPVWNKSPSQVHHYGNNNTESQQQDVSNLSTSAAEHQILILARQQAQREEELAQTQRHILALQEEIEELERENRLHSQQEAVLKTELREMERKQKREGVDMTYLKNVILKLLETGEVEALLPVVGMLLQFSPEEIQKCQQAYHSSTTAATTTEATPSPASEGSGLSVFSRFSFS
partner: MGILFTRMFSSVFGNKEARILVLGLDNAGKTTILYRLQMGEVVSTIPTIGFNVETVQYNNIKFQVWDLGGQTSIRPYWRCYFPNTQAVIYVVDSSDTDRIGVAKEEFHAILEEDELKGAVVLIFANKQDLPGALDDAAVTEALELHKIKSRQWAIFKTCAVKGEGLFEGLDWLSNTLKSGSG
B2: ADP-ribosylation factor 3 (Arabidopsis thaliana (Mouse-ear cress)), P40940 (parent)
chain: B1 partner
partner: B1 chain

Variants of: B1
Details: with arf3_arath ARF3, P40940

| Variant | effect of a mutation on the interaction |
| --- | --- |
| Y717A | decreasing interaction |

Variants of: B2
Details: with grip_arath GRIP

| Variant | effect of a mutation on the interaction |
| --- | --- |
| Q71L | causing an interaction |

Variants of: B2
Details: with grip_arath GRIP, Q8S2T0

| Variant | effect of a mutation on the interaction |
| --- | --- |
| T31N | disrupting interaction |
